Data set [1] deals with T1, SyFumC (GST-SyFumC; Synechocystis 6803 fumarase C) (Synechocystis sp. PCC 6803, UniProt Q55674).
T1 construct: gene fumC
T1 sequence (Q55674 1-466): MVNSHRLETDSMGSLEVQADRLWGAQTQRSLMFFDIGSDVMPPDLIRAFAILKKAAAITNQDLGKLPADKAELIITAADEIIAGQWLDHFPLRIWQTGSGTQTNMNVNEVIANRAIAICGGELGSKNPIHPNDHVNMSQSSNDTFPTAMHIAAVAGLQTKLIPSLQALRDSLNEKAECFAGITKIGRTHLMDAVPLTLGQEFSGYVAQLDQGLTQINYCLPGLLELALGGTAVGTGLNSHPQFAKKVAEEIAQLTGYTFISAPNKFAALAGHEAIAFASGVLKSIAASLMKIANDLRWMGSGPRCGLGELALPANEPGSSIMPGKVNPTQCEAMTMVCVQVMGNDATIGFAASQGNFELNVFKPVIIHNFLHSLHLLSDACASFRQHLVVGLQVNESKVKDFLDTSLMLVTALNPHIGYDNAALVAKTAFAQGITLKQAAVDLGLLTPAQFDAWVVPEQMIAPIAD
Nature of the data set: inhibition, absorbance at […] nm. The class given is biochemical. The settings on record: read-out: % of control activity at 4 mM.

Data set [2] addresses T2, SyFumC (GST-SyFumC; Synechocystis 6803 fumarase C) (Synechocystis sp. PCC 6803, UniProt Q55674, A314E).
T2 construct: gene fumC
Nature of the data set: absorbance at […] nm, saturation curve. The class given is biochemical. The settings on record: 100 mM Tris-HCl pH 7.5, 30 °C, no effector.

In data set [3] the target is T1, SyFumC (GST-SyFumC; Synechocystis 6803 fumarase C). Briefly: absorbance at […] nm, saturation curve. The class given is biochemical. The settings on record: 100 mM Tris-HCl pH 7.5, 30 °C, no effector.
Substrate in data set [4]: O=C(O)C[C@H](O)C(=O)O
Nature of the data set: purified protein. Conditions: 100 mM Tris-HCl pH 7.5, 30 °C, no effector.

The text below walks through data of PMC6650407 (Scientific Reports, 2019).

Regarding `O=C(O)CCC(=O)O` [succinate], the remaining activity at 4000 µM in data set [1] fell in the range of 45 to 58%.
Regarding `O=C(O)/C=C/C(=O)O` [fumarate], the Michaelis constant (Km) in data set [2] stood at 179 ± 36 µM; in data set [3], 244 ± 26 µM.

B1: SyFumC (GST-SyFumC; Synechocystis 6803 fumarase C) (Synechocystis sp. PCC 6803 substr. Kazusa) (protein)
chain: MVNSHRLETDSMGSLEVQADRLWGAQTQRSLMFFDIGSDVMPPDLIRAFAILKKAAAITNQDLGKLPADKAELIITAADEIIAGQWLDHFPLRIWQTGSGTQTNMNVNEVIANRAIAICGGELGSKNPIHPNDHVNMSQSSNDTFPTAMHIAAVAGLQTKLIPSLQALRDSLNEKAECFAGITKIGRTHLMDAVPLTLGQEFSGYVAQLDQGLTQINYCLPGLLELALGGTAVGTGLNSHPQFAKKVAEEIAQLTGYTFISAPNKFAALAGHEAIAFASGVLKSIAASLMKIANDLRWMGSGPRCGLGELALPANEPGSSIMPGKVNPTQCEAMTMVCVQVMGNDATIGFAASQGNFELNVFKPVIIHNFLHSLHLLSDACASFRQHLVVGLQVNESKVKDFLDTSLMLVTALNPHIGYDNAALVAKTAFAQGITLKQAAVDLGLLTPAQFDAWVVPEQMIAPIAD
Consider B1, for which, in data set [4], the Km is 478 ± 112 µM, the kcat amounted to 42.3 s⁻¹ and the kcat/Km was 90300 M⁻¹ s⁻¹.

B2: SyFumC (GST-SyFumC; Synechocystis 6803 fumarase C) (Synechocystis sp. PCC 6803 substr. Kazusa; A314E) (protein)
chain: MVNSHRLETDSMGSLEVQADRLWGAQTQRSLMFFDIGSDVMPPDLIRAFAILKKAAAITNQDLGKLPADKAELIITAADEIIAGQWLDHFPLRIWQTGSGTQTNMNVNEVIANRAIAICGGELGSKNPIHPNDHVNMSQSSNDTFPTAMHIAAVAGLQTKLIPSLQALRDSLNEKAECFAGITKIGRTHLMDAVPLTLGQEFSGYVAQLDQGLTQINYCLPGLLELALGGTAVGTGLNSHPQFAKKVAEEIAQLTGYTFISAPNKFAALAGHEAIAFASGVLKSIAASLMKIANDLRWMGSGPRCGLGELALPENEPGSSIMPGKVNPTQCEAMTMVCVQVMGNDATIGFAASQGNFELNVFKPVIIHNFLHSLHLLSDACASFRQHLVVGLQVNESKVKDFLDTSLMLVTALNPHIGYDNAALVAKTAFAQGITLKQAAVDLGLLTPAQFDAWVVPEQMIAPIAD
B2: in data set [4], the Km turned out to be 442 ± 20 µM, the kcat amounted to 21.6 s⁻¹ and the kcat/Km was found to be 49000 M⁻¹ s⁻¹.
